Data as given in PMC6479361, “Characterization of a New DyP-Peroxidase from the Alkaliphilic Cellulomonad, Cellulomonas bogoriensis” (Molecules, 2019).

Substrate: Nc1c(S(=O)(=O)O)cc(Nc2cccc(S(=O)(=O)CCOS(=O)(=O)O)c2)c2c1C(=O)c1ccccc1C2=O
Experiment: purified protein
Assay type: biochemical, Actinotalea bogoriensis
Conditions: 100 µM H2O2, 100 mM citrate pH 5, 50 nM enzyme, His-SUMO fusion

Protein	Km [µM]	kcat [s⁻¹]
CboDyP (Actinotalea bogoriensis 69B4 = DSM 16987) (protein, codon-optimized synthetic gene, recombinant in E. coli NEB 10-beta; N-terminal His-SUMO fusion kept for kinetics, SUMO cleaved for crystals; Tat signal predicted, first 22 residues not visible in crystal; heme-containing; motif GXXEG) VGAGAGARWGSRAPEAPQPARAAGPGDVVVPCHGEHQAGIVTPPPSFIALVALDLASTSDRASVERLLRVWTVDIERLTTGRPGLADSEPELALVPAALTVTVGFGPGLLTAAGLRHRAPAWLHPLPPFGIDRLDPAWCDGDVVLQVCADDRTTLAHAVRVLTKEAQGLASVRWVQRGFRRSPGISEPDGTSMRNLMGQVEGTANLDPRTDPDLLWHRDGEPGWLTGGTSMVVRRIAMNLDTWDELSRGAREATIGRTLRTGAPLTGRAEHDEPDLEALDDHGRPVIDLEAHIRRARPTQREETFLRRAYNYDEAPPPGRASDSGLLFVTYQRDVDAQFTPVQRRLDAADLLNEWTFPVGSAVFAVPGGWSAGEYVGQRLLEG	17	0.22
CboDyP (Actinotalea bogoriensis 69B4 = DSM 16987; E205D) (protein, codon-optimized synthetic gene, recombinant in E. coli NEB 10-beta; N-terminal His-SUMO fusion kept for kinetics, SUMO cleaved for crystals; Tat signal predicted, first 22 residues not visible in crystal; heme-containing; motif GXXEG) VGAGAGARWGSRAPEAPQPARAAGPGDVVVPCHGEHQAGIVTPPPSFIALVALDLASTSDRASVERLLRVWTVDIERLTTGRPGLADSEPELALVPAALTVTVGFGPGLLTAAGLRHRAPAWLHPLPPFGIDRLDPAWCDGDVVLQVCADDRTTLAHAVRVLTKEAQGLASVRWVQRGFRRSPGISEPDGTSMRNLMGQVDGTANLDPRTDPDLLWHRDGEPGWLTGGTSMVVRRIAMNLDTWDELSRGAREATIGRTLRTGAPLTGRAEHDEPDLEALDDHGRPVIDLEAHIRRARPTQREETFLRRAYNYDEAPPPGRASDSGLLFVTYQRDVDAQFTPVQRRLDAADLLNEWTFPVGSAVFAVPGGWSAGEYVGQRLLEG	36	2.88
